Legend:
[1] = target: mouse mitochondrial RNA polymerase (Polrmt), wild type (mouse, UniProt Q8BKF1 42-1207); assay: MST
[2] = target: mouse Δ320-Polrmt (N-terminal truncation mutant lacking the amino-terminal 320 amino acids) (mouse, UniProt Q8BKF1 321-1207); assay: MST
Sequence of mouse Δ320-Polrmt (N-terminal truncation mutant lacking the amino-terminal 320 amino acids) (Q8BKF1 321-1207, stated change not applied): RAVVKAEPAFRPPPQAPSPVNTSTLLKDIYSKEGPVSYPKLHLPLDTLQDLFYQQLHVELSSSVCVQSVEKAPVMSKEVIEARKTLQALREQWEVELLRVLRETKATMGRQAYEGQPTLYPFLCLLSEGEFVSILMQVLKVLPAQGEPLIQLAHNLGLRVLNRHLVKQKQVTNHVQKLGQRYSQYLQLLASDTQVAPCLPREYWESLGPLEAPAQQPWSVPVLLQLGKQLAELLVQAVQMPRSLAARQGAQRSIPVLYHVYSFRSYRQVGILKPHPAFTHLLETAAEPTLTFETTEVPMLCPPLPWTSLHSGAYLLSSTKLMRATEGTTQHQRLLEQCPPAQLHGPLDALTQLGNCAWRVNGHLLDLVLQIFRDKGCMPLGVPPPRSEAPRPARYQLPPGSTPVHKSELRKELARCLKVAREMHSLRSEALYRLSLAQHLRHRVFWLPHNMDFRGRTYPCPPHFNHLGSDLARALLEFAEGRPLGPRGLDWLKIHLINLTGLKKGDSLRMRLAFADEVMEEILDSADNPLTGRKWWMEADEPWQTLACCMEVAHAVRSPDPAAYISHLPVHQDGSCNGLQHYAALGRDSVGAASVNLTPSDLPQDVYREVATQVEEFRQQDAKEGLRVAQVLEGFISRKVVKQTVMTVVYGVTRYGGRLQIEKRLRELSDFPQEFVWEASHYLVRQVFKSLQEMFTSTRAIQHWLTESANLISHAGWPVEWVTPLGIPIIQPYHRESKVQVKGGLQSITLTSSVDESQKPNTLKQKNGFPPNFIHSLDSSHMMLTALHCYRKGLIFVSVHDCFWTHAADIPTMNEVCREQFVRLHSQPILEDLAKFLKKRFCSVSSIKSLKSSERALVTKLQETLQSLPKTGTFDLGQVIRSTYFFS

Sequence of mouse mitochondrial RNA polymerase (Polrmt), wild type (Q8BKF1 42-1207): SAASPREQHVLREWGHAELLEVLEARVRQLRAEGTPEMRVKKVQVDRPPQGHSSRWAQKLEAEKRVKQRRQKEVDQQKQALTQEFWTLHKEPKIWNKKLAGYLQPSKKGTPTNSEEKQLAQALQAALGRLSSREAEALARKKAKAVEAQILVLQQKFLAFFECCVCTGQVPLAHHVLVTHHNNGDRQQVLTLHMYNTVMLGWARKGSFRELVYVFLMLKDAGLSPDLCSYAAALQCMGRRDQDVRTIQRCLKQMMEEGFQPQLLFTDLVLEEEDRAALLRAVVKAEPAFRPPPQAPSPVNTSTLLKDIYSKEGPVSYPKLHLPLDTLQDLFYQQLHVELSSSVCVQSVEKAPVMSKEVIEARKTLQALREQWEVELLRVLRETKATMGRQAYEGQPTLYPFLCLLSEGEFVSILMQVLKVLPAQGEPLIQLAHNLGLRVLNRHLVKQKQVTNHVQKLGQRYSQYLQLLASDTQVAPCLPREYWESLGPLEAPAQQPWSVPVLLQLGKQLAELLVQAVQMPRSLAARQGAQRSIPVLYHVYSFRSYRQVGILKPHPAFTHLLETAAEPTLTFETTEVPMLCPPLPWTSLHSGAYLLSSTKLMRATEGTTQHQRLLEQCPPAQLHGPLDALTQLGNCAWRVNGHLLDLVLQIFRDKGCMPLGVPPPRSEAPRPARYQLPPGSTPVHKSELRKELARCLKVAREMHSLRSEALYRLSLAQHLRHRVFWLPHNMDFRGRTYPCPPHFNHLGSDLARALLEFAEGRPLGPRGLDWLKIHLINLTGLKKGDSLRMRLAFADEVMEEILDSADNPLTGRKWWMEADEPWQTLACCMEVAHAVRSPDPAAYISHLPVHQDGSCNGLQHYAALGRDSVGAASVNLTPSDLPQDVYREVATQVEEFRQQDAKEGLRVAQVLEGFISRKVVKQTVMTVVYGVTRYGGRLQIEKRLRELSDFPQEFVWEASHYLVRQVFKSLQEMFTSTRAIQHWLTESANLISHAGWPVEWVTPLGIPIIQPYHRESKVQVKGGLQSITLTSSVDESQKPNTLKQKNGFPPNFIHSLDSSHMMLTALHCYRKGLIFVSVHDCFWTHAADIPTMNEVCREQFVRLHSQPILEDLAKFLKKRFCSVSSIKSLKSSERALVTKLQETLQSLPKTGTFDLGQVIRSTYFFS

- Kd [1]: 105 ± 1.2 nM
- Kd [2]: 49.4 ± 1.1 nM
B1: mouse mitochondrial transcription factor B2 (Tfb2m) (natural protein, UniProt Q3TL26 44-396, looked up)
chain: SDFNIEPLPDSDLEESSPWTSRNRSEPTRHIACKKAARNLVRDLLEHQNPSRQIILECNPGPGILTGALLKAGARVVAFESEKTFIPHLEPLQRNMDGELQVVHCDFFKMDPRYQEVVRPDVSSQAIFQNLGIKAVPWSAGVPIKVFGILPYKHERRILWKILFDLYSCESIYRYGRVELNMFVSEKEFRKLIATPKRPDLYQVMAVLWQVACDVKFLHMEPWSSFSVHTENGHLEKSKHGESVNLLKQNLYLVRMTPRRTLFTENLSPLNYDIFFHLVKHCFGKRNAPIIRHLRSLSTVDPINILRQIRKNPGDTAARMYPHDFKKLFETIEQSEDSVFKWIYDYCPEDMEF
modifications: amine-labelled with NT-647 dye

Source: PMC3973307 (Nucleic Acids Research, 2014)
